Data published in the domain aggregation screens of Martell et al. (2025).

Test: soluble fraction after stress (log2 fold change); higher = more stays soluble; pooled small domains, quantitative proteomics
Conditions: stress: 75 degC
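Note: 20 min heating vs room temperature control held 20 min.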

Row | Sequence | soluble fraction (log2)
1 | HMTSPKSRIVSALLASPSRPEELAMRLGEDILTLMRTLTDFEASGIIQRLPDGRYTPTREYHLGLVDK | -0.12
2 | HMTSPRRLYALIVEHVGKDGVMHRSDVENVLAKVESEMDVDDLLDQLEINGTIIRRQDGTWQLL | -0.716
3 | HMTSRFITTEEGTLYVDADGRKVSGWQTIDGSRYYFDEHGIRQSGTIEVNGETYVLDEDGVL | 0.0516
4 | HMTSRWEIGYNVAKKYYDEHGNLDVERAVYDNFELKKWLNTQRYKNSAGTLAEKYKIKLDELGMNWER | -0.214
5 | HMTSSQLYLIEEDMEGERLDAFLAEVIADLSRTAIKDLISNGRVLVDGQARKPSYRVKEGEQVLIHVPEAR | -0.392
6 | HMTSVFQNSDGTWGHLTKTVNPLIYTIEYGRRTGFSSREEAEESYQRSLTSYQDQLSKLKKERD | 0.297
7 | HMTSVPGTVVTNANLRGGPGTNYPIVGKAPAGTTVNVVESTADRTWYYLDTGSWIAAFLVKLS | -0.33
8 | HMTSVRVPVKKEIWFWAIKESQRDLNEILARFPKMDKWINQEENPTFNQLEKVAKFLRVPFGYMFLDKPPK | -1.86
9 | HMTTETGTVKWFNEGKGFGFIAPDGGGKDLFAHFKEIQGSGFKTLTENQRVQFEVTQGQKGPQASNIRTL | 0.227
10 | HMTTHEQVAILRRELNGLVGAWHHRTGQAHGVTHSKLRKELGGPPAAVASAAQLSARIEKIRQWAT | -0.922
11 | HMTTIAQMTGPQRAAVILLVLGEDHGRTIWQEFDDDEIRIITRAMAELGTVDADEVERLMLDFVGKLSS | -2.67
12 | HMTTIAQNISNYRTRANMTQQQVADKLSVSHHTVSKWELGINTPSVEDMQKLAQVFGVTITELVVD | -0.652
13 | HMTTIHVDPEKISKIIGPGGKTIKKIVEETGAKIDIEEDGRVYIAAVNSEEAAKAIDMINGI | 0.0704
14 | HMTTIPAGRQQYILSLIRREGTVTVSRLAQELEVSELTIRRDLDQMAARNLVERTHGGATERR | -1.53
15 | HMTTKEEAAYQAIRSAIIDGELKPGQSVTIRDLASRFDLGRTPITDAMKHLALDGWLETTTGVGTRV | -0.183
16 | HMTTLAADFNSDGRVDIGDLSILAGNWGKSRTNEVDFNKYGDADYNGRIDIIDLSILATQFGQTDNSN | 0.321
17 | HMTTLDTVARQLRDRIREQLDPTGEMSDESLLRTIEEAVYRYSSSGHVLTANEKETVIRRIFHSFR | 0.042
18 | HMTTMNSADLIKELEKAGWTLRGVKGSHHIYTHPARGGHLSVPHPKKDLGAGLARQLRKQAGL | -0.032
19 | HMTTPAAISKIKKLEEAKRLLATTTYSMKEIAVKLKYKSHTHFGMDFKNNTGMTPAEYRKAIKAKREKQMN | -1.96
20 | HMTTQERVSYSAFINDVETGRVAKVVISGYTIEGTRTNNSSFVTERPYGVDSNLSEVLMQNSVSIEGKA | -0.122
21 | HMTTQVNTVKIQLANGYEMTVLTSKTNVKEILEDNNIILENNEKVTPNIDEEISSNKTIKITDKSN | 0.055
22 | HMTTTSGLIKTIQTGRRKLGMDDETYRALLADVSGGKTSSKDLNAYQLKEVLRRMREAGFRS | 0.58
23 | HMTVDAVALGRRVRHLRKQAGLTLDQLAERTGVSGSHLSLVENARREPRLSLVQRIAEVLGVPVEDL | -1.49
24 | HMTVGEKIQYYRKKIGLSQEELGQKMLLSRQTISLWEMDKTLPTVDNLLRLKEIFSVSIDELLSENEPK | -1.31
25 | HMTVKNFNDLPGFKNENLAELKAMGITTISELAEALNDGGKIKEIIKNLSGVGPKTAEKWKDAIG | ≥ 1.04
26 | HMTVKVPDLRGKTLAEMQRILDDAGLKYEINDSTFSRTAIPGTVREVIPAPGSEVKLGRILFIAINGF | -2.19
27 | HMTVLIDEQSSDGLLKITVTANTAVKSITIADELLEDKEQLEDYLILVLNKAIARANQVNQTELDAVAK | 0.0536
28 | HMTVPAGIVLSSIRQDGDVLHIRGTAQSTERLNFFRNSFSASWGSPAQNGKRKADPVTGLVDFTISLK | -0.758

Row | Sequence | soluble fraction (log2)
29 | HMTVPMKILILEDEQRNAMRLIRLLNDIDTTFIIEGPLTNIKEAVDFFQSGKTTDLILADIRL | -0.254
30 | HMTVSADQTTADAVIKLIDAIGTVSKNSGSAISAARSGYDALTDAQKKLVTNYNKLTQAEQVFSSLS | 0.494
31 | HMTVSLTDVPFVPEILDRLERPELDVLLAILNGATNTFDLAAKTGRSRDELDEVLDRLTTLGLIER | -0.532
32 | HMTVTLTTLRNGSTGAQVKTLQRLLSAMDYYNGETDGKFGISTAAAVKAFQRAKRLTVDGIVGKNTWTALL | -1.2
33 | HMTVTMADISQAYNEKRYLTTISLSNTYLTFAKPTTELLSIRYRTYFIIGKYAESLTEIAKL | 0.294
34 | HMTVTTDITQYFLQENGLLNGPNARQLRQKIGETLNIGYTNGKQLLKRAQQFGLTRDQILTALKK | -0.638
35 | HMTVVIKVQASQLESWKSSAGTEIKAKLIAVEDEKTYLFVTETGKTIRATAAQLDESSVSRARKLAGL | -2.37
36 | HMTYGYFELKAKNLDSLKQFLKGIAQVESIEEENNGLKVFLKNELESEELSEKLAEAKIFVSHLAKKK | -0.265
37 | HMTYKPAADFKPSDTSSLKEGMKVEHPKFGFGTVMKMEEVGTERKARINFADFGEKTLLLSFAKLKIHEN | -0.256
38 | HMTYNEYPEKEMQDLIDKSISQQEQAASQYGYSLGDYVTARYGFQSESDFREYVQGLAEDYMKEKI | -0.476
39 | HMTYQHQSIIHRRTRGAILTAAKELLAESGISGTNMIEIADRAQVSRASLYNHFRDKHEVFLALVES | -0.591
40 | HMTYSAWIEKAYSELEKKGITEAELSDALDKRGINLEDLKLMGPDEAVKYQSEVEGVVLELSKSKE | 0.154
41 | HMTYSEEEIERDLYVRGTLYQIGDLVENKIDGTSGEIVRRGPNYVQYSDGENFYKAFLHSIQEV | 0.0161
42 | HMTYTMVAYGSQGDAVRQLQSELNRHGYQLDEDGVFGKKTRAAVRDYQKKNSLRLDGIAGDETWGSLLA | 0.696
43 | HMTYTPRAGSLASQVIGFFRHNPDEELLLDDITDKFDATRGNIHTLLAEAVRFKLLARYRNDDGDYVYKPG | -3.06
44 | HMVAADTVQVPDVTGKTVADAKQALISAGLQVGTVTAKDGKETANTILETSPAAGTSVDKGSKVNLVYSTG | 0.00808
45 | HMVAAITDLPVKSVNGRQMYYYVVRKGETVYSLTHTLGITHDRLVKANRSVEDGLRAGQILYFPVSEFG | -2.95
46 | HMVAELAEMAENKNITSAQLALAWILKQSENIIPIPGTKRIKYLNENIEAVNVDLSKEDVENIENLLRKYP | -0.104
47 | HMVAGHLQEKNGQFYAVLSYKDTKGKRRTKWVPTGLMVRGNKKRAEAMLNDIRRKFVPPEQED | -0.474
48 | HMVAGPDEPLSDREQGVLDLLAEGLSNKAISKQLGISVATVKSHLSNIYGKLQAENRMQAVARARELGLM | ≥ 1.04
49 | HMVAISNTSGLAGVAYWIQSNIPKGIDIRKDNPGIVTIKNWIDEEYRKGRTTTISEEEMFKLVREYMPEL | -1.87
50 | HMVAMGQRVVPLTHLSIDDVRRLLESTYGKDSGIEVTKPGTAAKGVIVTAPRTELDGIVALVKQA | -0.113
51 | HMVAMYLRVGISNGRRYLSIVQGYRDQVTKKVRHNTVKSLGYLDDLEKHYPDPIAHFKAVVEEMNKKQALE | -2.04
52 | HMVANDQILNQYGISDREAEIIGLLIEGLSNQQIAKQLYISPNTVKTHIKNIYAKVGVNNRLQLFSLLK | -0.435
53 | HMVANLPFNYKVYAKKGKLYVVISYKDSNGKYKKKWIRTGLDEGTKKKEVNTVADQIAAEYYSSMRLE | -3.52
54 | HMVAQQINDFRSERDASTGTLKRPLFDTLRDVISSRAQAYVSATGKPVTVEDLDRIYQAVEAEAKQAL | 0.0174
55 | HMVDDELTARRRVNLRRIADELGGAAAVARKTQKSVQQISSMLNGTKSFGSKIARDIEPKLGLPLQSLDKE | 0.0147
